Assay results published in patent US20230012273A1 (Boehringer Ingelheim, published 2023).
Changes are numbered by the printed parent chain. Where two headings read alike, the source gives them in different places.

How the values were obtained:
[1] = target: T1, full-length human SIRPγ (NP_061026.2) on cells (human, UniProt Q9P1W8 29-387); experiment: flow cytometry, primary human CD3+ T cells
T1 construct: on CHO and Expi-CHO cells; endogenous on primary human CD3+ T cells; also called γ WT
Method: Antibody binding to primary human T cells expressing endogenous SIRPγ is evaluated by flow cytometry. Human peripheral blood mononuclear cells (PBMCs) are blocked with donkey IgG and incubated on ice with increasing concentrations of antibody for 60 minutes, washed and stained with AF647-conjugated donkey F(ab′)₂ anti-human IgG secondary reagent. […] Cells are washed, fixed, and analyzed by flow cytometry. Median fluorescent intensity of CD3+ gated population is determined and used as a measure of antibody binding.

[2] = target: T2, full-length human SIRPβL (NP_001129316.1) on cells (human, UniProt Q5TFQ8 30-398); experiment: flow cytometry, U937 SIRPα KO cells
T2 construct: on U937 SIRPα KO cells and Expi-CHO cells; also called βL WT; SIRPβ1v3
Method: Antibody binding to cells expressing full-length human SIRPβ1 (NP_006056.2) and SIRPβL (NP_001129316.1) is evaluated by flow cytometry. SIRPβ1- or SIRPβL-expressing U937^{SIRPα KO} cells are blocked with donkey IgG and incubated on ice with increasing concentrations of antibodies for 60 minutes, washed and stained with AF647-conjugated donkey F(ab′)₂ anti-human IgG secondary reagent. Cells are washed, fixed, and analyzed by flow cytometry. Median fluorescent intensity is determined and used as a measure of antibody binding.

[3] = target: T3, human SIRPαV1 extracellular domain + His-tag (NP_542970.1) (human, UniProt P78324 31-373); experiment: SPR, Ab captured, ECD-His analyte
T3 construct: also called hSIRPαV1; HuSIRPαV1
Method: (§1) The binding affinity of anti-SIRPα antibodies to the various SIRPα analytes is determined by surface plasmon resonance (SPR) using a ProteOn XPR36 (Bio-Rad). The running buffer for this experiment and all dilutions (except where stated) are done in 1×HBS-EP+. […] The sensorchip is deactivated with 1M ethanolamine HCl for 420 sec at a flowrate of 10 μl/min.
(§2) The analyte is injected over the captured antibody for 300 sec at a flowrate of 30 μl/min. The dissociation is done for 600 sec. Two-fold serial dilutions of each SIRP protein (Extracellular Domain+His-Tag) are injected as analyte with the highest concentrations indicated in table 36 below.

[4] = target: T4, human SIRPβ1 extracellular domain + His-tag (NP_006056.2) (human, UniProt O00241 30-371); experiment: SPR, Ab captured, ECD-His analyte
T4 construct: also called hSIRPβ1; HuSIRPβ1
Method: as §1, §2

[5] = target: T5, human SIRPαV2 extracellular domain + His-tag (CAA71403.1) (human, UniProt P78324 31-373); experiment: SPR, Ab captured, ECD-His analyte
T5 construct: also called hSIRPαV2; HuSIRPαV2
Method: as §1, §2

[6] = target: full-length human SIRPβ1 D→H on Expi-CHO cells (human, UniProt O00241 30-398); experiment: flow cytometry, Expi-CHO cells
Method: These cells are blocked with donkey IgG and incubated on ice with increasing concentrations of antibodies for 60 minutes, washed and stained with AF647-conjugated donkey F(ab′)₂ anti-human IgG antibodies. Stained cells are washed, fixed, and analyzed by flow cytometry. Median fluorescent intensity is determined and used as a measure of antibody binding.

[7] = target: T6, cynomolgus SIRPα extracellular domain + His-tag (NP_001271679) (cynomolgus monkey); experiment: SPR, Ab captured, ECD-His analyte
T6 construct: also called CySIRPα NP_001271679; cynoSIRPα
T6 chain: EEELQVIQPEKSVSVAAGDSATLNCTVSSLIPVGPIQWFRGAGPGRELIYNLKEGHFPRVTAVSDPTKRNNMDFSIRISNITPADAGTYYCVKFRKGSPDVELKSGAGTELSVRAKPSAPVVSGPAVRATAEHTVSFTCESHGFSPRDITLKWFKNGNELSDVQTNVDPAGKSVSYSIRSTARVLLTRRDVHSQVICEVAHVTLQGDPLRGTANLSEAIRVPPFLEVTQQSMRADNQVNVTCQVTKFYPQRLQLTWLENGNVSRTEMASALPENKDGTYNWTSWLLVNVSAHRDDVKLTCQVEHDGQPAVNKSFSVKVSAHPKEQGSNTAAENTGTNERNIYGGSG
Method: as §1, §2

[8] = target: T7, mouse SIRPα extracellular domain + His-tag (NP_031573) (mouse, UniProt P97797 32-373); experiment: SPR, Ab captured, ECD-His analyte
T7 chain: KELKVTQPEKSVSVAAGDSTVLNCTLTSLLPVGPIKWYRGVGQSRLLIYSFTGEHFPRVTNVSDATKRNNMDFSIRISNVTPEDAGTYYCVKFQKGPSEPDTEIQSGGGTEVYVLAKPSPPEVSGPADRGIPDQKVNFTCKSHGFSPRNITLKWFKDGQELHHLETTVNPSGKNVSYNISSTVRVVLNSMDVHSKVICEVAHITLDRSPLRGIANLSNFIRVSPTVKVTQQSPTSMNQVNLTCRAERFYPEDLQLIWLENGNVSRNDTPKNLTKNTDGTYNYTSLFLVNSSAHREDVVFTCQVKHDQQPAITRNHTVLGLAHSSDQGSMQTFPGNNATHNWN
Method: as §1, §2

[9] = target: T8, cynomolgus SIRPα extracellular domain + His-tag (XP_015313155) (cynomolgus monkey); experiment: SPR, Ab captured, ECD-His analyte
T8 construct: also called CySIRPα XP_015313155; cynoSIRPα
T8 chain: T6 chain with A62P, V163F, L185V
Method: as §1, §2

[10] = target: T9, cynomolgus SIRPβ1 extracellular domain + His-tag (XP_005568598) (cynomolgus monkey); experiment: SPR, Ab captured, ECD-His analyte
T9 construct: also called Cyno SIRPβ1; cynoSIRPβ1
T9 chain: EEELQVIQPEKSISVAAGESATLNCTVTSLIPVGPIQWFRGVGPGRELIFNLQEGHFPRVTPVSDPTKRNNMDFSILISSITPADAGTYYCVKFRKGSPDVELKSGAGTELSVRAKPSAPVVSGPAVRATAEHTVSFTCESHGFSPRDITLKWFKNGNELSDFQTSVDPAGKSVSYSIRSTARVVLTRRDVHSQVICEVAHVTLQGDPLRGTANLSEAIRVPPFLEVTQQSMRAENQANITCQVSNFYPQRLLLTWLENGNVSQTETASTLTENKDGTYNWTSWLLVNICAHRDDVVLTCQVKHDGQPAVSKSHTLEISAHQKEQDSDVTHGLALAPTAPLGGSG
Method: as §1, §2

[11] = target: T10, cynomolgus SIRPγ extracellular domain + His-tag (XP_005568591) (cynomolgus monkey, UniProt Q9P1W8 29-359 (human entry)); experiment: SPR, Ab captured, ECD-His analyte
T10 construct: also called Cyno SIRPγ; cynoSIRPγ
T10 chain: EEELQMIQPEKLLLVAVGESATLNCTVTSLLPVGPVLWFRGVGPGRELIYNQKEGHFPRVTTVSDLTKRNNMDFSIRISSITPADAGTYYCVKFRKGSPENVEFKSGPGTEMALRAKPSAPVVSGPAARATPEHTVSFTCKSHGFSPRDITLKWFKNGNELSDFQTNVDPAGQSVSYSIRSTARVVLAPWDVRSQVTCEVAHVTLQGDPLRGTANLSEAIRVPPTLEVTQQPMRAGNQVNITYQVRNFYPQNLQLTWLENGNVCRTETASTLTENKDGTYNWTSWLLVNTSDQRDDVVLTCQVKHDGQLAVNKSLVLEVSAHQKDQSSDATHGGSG
Method: as §1, §2

[12] = target: T11, cynomolgus SIRPβ1v3 extracellular domain + His-tag (XP_005568593) (cynomolgus monkey); experiment: SPR, Ab captured, ECD-His analyte
T11 construct: also called Cyno SIRPβ1v3; cynoSIRPβ1v3
T11 chain: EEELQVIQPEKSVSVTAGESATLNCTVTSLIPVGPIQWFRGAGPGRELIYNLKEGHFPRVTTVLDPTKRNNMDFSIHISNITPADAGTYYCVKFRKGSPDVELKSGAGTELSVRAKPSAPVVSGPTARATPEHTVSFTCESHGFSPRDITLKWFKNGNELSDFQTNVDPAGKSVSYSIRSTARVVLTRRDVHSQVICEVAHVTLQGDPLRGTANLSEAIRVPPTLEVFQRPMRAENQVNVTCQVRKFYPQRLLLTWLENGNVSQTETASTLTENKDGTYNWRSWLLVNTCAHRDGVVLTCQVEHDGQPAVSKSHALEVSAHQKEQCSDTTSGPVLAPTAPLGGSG
Method: as §1, §2

[13] = target: T12, cynomolgus SIRPα extracellular domain + His-tag (EGM_02252) (cynomolgus monkey); experiment: SPR, Ab captured, ECD-His analyte
T12 construct: also called CySIRPα EGM_02252; cynoSIRPα
T12 chain: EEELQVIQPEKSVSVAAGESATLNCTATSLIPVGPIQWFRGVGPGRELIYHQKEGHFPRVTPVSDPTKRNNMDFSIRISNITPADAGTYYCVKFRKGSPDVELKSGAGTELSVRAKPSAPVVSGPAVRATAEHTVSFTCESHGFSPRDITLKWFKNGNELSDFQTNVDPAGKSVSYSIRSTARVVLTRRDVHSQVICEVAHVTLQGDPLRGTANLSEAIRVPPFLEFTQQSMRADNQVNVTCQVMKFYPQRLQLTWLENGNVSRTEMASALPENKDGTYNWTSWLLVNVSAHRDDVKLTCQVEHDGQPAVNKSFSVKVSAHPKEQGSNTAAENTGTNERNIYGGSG
Method: as §1, §2

[14] = target: T13, human SIRPβL/SIRPβ1v3 extracellular domain + His-tag (NP_001129316.1) (human, UniProt Q5TFQ8 30-371); experiment: SPR, Ab captured, ECD-His analyte
T13 construct: also called hSIRPβ1v3; HuSIRPβ1v3
Method: as §1, §2

[15] = target: T14, human SIRPγ extracellular domain + His-tag (NP_061026.2) (human, UniProt Q9P1W8 29-360); experiment: SPR, Ab captured, ECD-His analyte
T14 construct: also called hSIRPγ; HuSIRPγ
Method: as §1, §2

[16] = target: T4, human SIRPβ1 extracellular domain + …; experiment: SPR, Ab captured, ECD-His analyte; remark: listed apart in the source
Method: as §1, §2

T4 sequence (O00241 other isoform, or with tags, fused parts or gaps): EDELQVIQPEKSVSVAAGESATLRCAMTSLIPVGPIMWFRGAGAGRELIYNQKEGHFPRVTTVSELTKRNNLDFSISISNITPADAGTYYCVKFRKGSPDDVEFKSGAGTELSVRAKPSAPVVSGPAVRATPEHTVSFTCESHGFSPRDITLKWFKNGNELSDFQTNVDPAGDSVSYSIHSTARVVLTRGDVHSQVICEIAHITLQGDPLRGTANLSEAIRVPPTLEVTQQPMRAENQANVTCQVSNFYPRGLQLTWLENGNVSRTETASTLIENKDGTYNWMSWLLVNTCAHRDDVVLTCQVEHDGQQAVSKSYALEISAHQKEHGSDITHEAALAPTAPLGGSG
Sequence of full-length human SIRPβ1 D→H on Expi-CHO cells (O00241 30-398 D130H): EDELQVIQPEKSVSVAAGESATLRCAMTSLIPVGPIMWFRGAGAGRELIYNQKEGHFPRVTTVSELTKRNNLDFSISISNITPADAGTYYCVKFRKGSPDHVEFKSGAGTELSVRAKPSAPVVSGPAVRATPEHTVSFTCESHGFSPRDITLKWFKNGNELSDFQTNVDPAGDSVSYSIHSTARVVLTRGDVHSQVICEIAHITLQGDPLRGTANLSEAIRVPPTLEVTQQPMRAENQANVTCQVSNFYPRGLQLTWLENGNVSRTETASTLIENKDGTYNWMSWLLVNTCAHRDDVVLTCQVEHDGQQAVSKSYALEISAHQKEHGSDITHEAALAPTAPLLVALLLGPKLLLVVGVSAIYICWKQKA
T3 sequence (P78324 other isoform, or with tags, fused parts or gaps): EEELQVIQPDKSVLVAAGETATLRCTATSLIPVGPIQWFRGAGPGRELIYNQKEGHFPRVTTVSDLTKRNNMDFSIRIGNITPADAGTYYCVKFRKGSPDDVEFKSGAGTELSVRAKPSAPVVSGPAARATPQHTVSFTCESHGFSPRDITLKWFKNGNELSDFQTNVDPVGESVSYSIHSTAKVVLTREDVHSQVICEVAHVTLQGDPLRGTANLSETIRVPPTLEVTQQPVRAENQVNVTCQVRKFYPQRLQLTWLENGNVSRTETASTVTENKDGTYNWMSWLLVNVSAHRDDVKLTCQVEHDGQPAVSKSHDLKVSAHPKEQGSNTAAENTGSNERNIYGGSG
T5 sequence (P78324 other isoform, or with tags, fused parts or gaps): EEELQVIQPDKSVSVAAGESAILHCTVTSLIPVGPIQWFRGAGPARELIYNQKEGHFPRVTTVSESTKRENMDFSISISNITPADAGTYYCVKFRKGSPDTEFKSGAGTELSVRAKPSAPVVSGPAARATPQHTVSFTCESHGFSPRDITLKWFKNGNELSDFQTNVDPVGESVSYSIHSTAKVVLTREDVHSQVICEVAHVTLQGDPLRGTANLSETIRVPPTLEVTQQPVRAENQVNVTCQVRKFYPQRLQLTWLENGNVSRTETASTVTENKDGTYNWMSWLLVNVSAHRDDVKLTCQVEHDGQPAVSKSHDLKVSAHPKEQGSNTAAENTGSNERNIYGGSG
T2 sequence (Q5TFQ8 30-398): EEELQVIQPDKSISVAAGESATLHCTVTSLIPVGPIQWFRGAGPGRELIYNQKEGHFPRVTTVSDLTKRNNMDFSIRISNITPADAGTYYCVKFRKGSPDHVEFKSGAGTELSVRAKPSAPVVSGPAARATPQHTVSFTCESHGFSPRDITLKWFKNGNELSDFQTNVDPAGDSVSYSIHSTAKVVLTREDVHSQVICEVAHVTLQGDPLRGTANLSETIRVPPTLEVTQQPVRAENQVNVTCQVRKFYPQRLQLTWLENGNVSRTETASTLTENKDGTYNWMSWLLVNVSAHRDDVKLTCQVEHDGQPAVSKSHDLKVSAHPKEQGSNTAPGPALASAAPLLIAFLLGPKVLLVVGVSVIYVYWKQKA
T13 sequence (Q5TFQ8 other isoform, or with tags, fused parts or gaps): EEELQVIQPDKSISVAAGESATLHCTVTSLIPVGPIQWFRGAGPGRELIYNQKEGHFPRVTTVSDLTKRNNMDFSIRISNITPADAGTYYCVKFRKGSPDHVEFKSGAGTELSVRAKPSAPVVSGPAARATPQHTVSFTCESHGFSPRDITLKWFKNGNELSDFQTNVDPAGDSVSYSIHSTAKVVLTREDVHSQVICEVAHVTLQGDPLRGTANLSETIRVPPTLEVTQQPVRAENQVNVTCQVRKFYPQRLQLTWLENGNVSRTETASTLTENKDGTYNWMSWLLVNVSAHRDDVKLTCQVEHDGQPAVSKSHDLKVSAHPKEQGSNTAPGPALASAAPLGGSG
T1 sequence (Q9P1W8 29-387): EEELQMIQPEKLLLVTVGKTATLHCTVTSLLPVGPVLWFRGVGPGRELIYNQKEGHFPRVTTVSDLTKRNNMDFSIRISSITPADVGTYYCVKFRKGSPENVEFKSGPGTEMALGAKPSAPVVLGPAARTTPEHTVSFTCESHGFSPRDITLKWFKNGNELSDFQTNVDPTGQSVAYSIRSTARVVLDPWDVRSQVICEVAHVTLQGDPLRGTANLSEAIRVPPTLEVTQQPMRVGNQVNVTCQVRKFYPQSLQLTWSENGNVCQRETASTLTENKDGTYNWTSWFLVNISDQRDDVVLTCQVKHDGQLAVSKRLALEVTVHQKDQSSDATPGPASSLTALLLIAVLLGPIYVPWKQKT
T14 sequence (Q9P1W8 29-360): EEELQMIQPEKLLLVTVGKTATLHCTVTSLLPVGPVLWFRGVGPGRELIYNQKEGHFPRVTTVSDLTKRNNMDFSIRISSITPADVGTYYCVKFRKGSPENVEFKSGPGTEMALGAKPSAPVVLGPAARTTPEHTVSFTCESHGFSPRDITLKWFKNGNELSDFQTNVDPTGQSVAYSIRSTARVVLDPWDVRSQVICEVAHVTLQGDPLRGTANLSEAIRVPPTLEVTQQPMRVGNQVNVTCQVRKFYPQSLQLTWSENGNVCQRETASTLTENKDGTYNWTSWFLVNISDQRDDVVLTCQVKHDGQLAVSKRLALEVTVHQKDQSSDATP

B1: Antibody A11 (antibody, human IgG4 S228P, kappa)
heavy: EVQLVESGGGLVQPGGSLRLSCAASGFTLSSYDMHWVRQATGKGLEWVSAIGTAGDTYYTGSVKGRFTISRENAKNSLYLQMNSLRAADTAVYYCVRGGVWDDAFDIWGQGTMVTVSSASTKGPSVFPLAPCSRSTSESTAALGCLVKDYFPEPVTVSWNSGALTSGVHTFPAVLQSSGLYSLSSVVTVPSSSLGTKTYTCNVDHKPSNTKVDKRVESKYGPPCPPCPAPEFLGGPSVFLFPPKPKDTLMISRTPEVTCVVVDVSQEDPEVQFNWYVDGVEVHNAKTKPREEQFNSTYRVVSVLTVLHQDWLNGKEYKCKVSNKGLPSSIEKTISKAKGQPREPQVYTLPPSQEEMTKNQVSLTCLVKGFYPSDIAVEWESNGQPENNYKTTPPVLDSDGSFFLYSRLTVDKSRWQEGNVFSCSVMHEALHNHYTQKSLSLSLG
light: DIQMTQSPSSLSASVGDRVTITCRASQDINNYLAWFQQKPGKAPKSLIYTASSLHSGVPSKFSGSGSGTDFTLTISSLQPEDFATYYCQQYVSYPYTFGQGTKLEIKRTVAAPSVFIFPPSDEQLKSGTASVVCLLNNFYPREAKVQWKVDNALQSGNSQESVTEQDSKDSTYSLSSTLTLSKADYEKHKVYACEVTHQGLSSPVTKSFNRGEC
[1]
  binding result: no binding
[2]
  binding result: no binding

B2: Antibody C (antibody, human IgG1, kappa, L234A L235A, V domains shown)
VH: EVQLVESGGGLVQPGGSLRLSCAASGFTFSSYDMHWVRQATGKGLEWVSVIGIAGDTYYPGSVKGRFTISRENAKNSLYLQMNSLRVGDTAVYYCARGGSWDDAFDIWGQGTMVTVSS
VL: DIQMTQSPSSLSASIGDKVTITCRASQDINNYLAWFQQKPGKAPKSLIYTASSLQSGVPSKFSGSGSGTDFTLTISSLQPEDFATYYCQQYVSYPYTFGQGTKLEIKR
[3]
  Kd: 0.627 nM
[4]
  Kd: 2.14 nM
[5]
  Kd: 0.0969 nM
[6]
  binding result: no binding
[7]
  Kd: 14.3 nM
[8]
  binding result: no binding

B3: Antibody A5 (antibody, human IgG1, kappa, L234A L235A, V domains shown)
VH: B2 VH with F29L, T41P, V50A, I53T, P60T, V87A, G88S, A96V, S100V
VL: B2 VL with I15V, K18R, D28G, L33A, Q55H
[9]
  Kd: 347 nM
[10]
  binding result: no binding (tested: 1000 nM)
[11]
  binding result: no binding (tested: 1000 nM)
[12]
  Kd: 465 nM
[13]
  Kd: 533 nM
[14]
  binding result: no binding (tested: 100 nM)
[15]
  binding result: no binding (tested: 1000 nM)
[16]
  Kd: 64.2 nM

B4: Antibody D (antibody, human IgG1, kappa, L234A L235A, V domains shown)
VH: B2 VH with Y32F, A40P, V50T, Y59F, V87A, S100N, F105L
VL: B2 VL with I15V, K18R, V92N, S93T
[3]
  Kd: 4.04 nM
[4]
  Kd: 16.5 nM
[5]
  Kd: 4.05 nM
[6]
  binding result: no binding
[7]
  binding result: no binding (tested: 1000 nM)
[8]
  binding result: no binding
